Drawing on the Human Domainome abundance scans (Beltran et al. 2025), this text covers abundance fitness for 167 variants.

± gives the uncertainty stated by the source.

Sequences and labels used below:
B1: POU domain, class 3, transcription factor 2, residues 262 to 338; numbered along this chain, P20265 (parent)
chain: EDTPTSDDLEQFAKQFKQRRIKLGFTQADVGLALGTLYGNVFSQTTICRFEALQLSFKNMCKLKPLLNKWLEEADSS

In this data set the parent is B1. The experiment in a line: abundance fitness (aPCA) (normalised: wild type 0, dead -1); higher = more abundant; growth selection in yeast, the domain comes from the species named. The following applies: Homo sapiens.
For T36M, the abundance fitness was -0.11 ± 0.042.
The figure for T36R is 0.012 ± 0.027.
F42S: the abundance fitness is -0.268 ± 0.045.
For the variant F42N, the abundance fitness was -0.582 ± 0.15.
With E10M, the abundance fitness was found to be 0.008 ± 0.038.
For the variant E10N, the abundance fitness is -0.204 ± 0.075.
The figure for E10P is -0.189 ± 0.051.
For Y38E, the abundance fitness was -0.199 ± 0.038.
The figure for Y38F is -0.036 ± 0.061; for Y38P it is -0.36 ± 0.058; for I47Q it is -0.723 ± 0.094.
The value for Q15R was -0.035 ± 0.027; that for L34N was -0.796 ± 0.15.
As to F57R, the abundance fitness is 0.02 ± 0.025.
The figure for F57N is 0.031 ± 0.063; for F57G it is -0.246 ± 0.028; for F57Y it is 0.056 ± 0.11.
In the case of C61V, the abundance fitness was -0.035 ± 0.03.
C61Q: the abundance fitness was -0.112 ± 0.048.
The value for C61L was -0.001 ± 0.029; that for S43K was -0.132 ± 0.053; that for S43Q was -0.166 ± 0.045.
As for F25N, the abundance fitness was -0.709 ± 0.11.
The value for F25T was -0.632 ± 0.079; that for L9N was -0.394 ± 0.084; that for G31K was -0.383 ± 0.065.
The value for G31R was -0.383 ± 0.036.
The figure for G31Y is -0.213 ± 0.097; for G31W it is -0.207 ± 0.049; for G31C it is -0.009 ± 0.042.
For the variant L55Q, the abundance fitness was -0.506 ± 0.064.
The figure for R20Y is -0.63 ± 0.17; for R20K it is -1.25 ± 0.35.
In the case of R20C, the abundance fitness is -1.01 ± 0.18.
On to R20E, for which the abundance fitness was -0.712 ± 0.079.
The value for R20T was -1.13 ± 0.19; that for A13K was -0.606 ± 0.11; that for A13P was -0.731 ± 0.083.
The value for A52Y was -0.534 ± 0.17; that for A52L was -0.111 ± 0.037; that for A52F was -0.844 ± 0.46.
The value for N59M was 0.049 ± 0.045; that for N59Q was -0.001 ± 0.044; that for N59K was -0.022 ± 0.039.
Consider Q44W, for which the abundance fitness is -0.399 ± 0.042.
The value for Q44F was -0.373 ± 0.11.
The value for Q44M was -0.145 ± 0.042; that for Q44H was -0.031 ± 0.069; that for E73I was -0.009 ± 0.12.
The figure for E73G is -0.036 ± 0.05; for K17D it is -0.949 ± 0.12.
As for K17C, the abundance fitness is -0.442 ± 0.061.
The figure for A74V is 0.041 ± 0.034; for A74S it is -0.168 ± 0.039; for K62G it is -0.189 ± 0.027.
The figure for Q54T is -0.068 ± 0.054; for D2P it is -0.153 ± 0.052.
The figure for D2V is -0.176 ± 0.03.
Turning to K58S, the abundance fitness is -0.053 ± 0.051.
The figure for K58D is -0.088 ± 0.091; for P65K it is -0.213 ± 0.22; for P65T it is -0.059 ± 0.12.
The value for S6W was 0.098 ± 0.03.
The value for S6N was -0.032 ± 0.049; that for S6D was -0.092 ± 0.042; that for S6E was -0.038 ± 0.032.
Regarding S6G, the abundance fitness was -0.05 ± 0.025.
As to D8K, the abundance fitness was -0.074 ± 0.07.
The figure for D8S is 0.034 ± 0.037.
Take D8Q: the abundance fitness is 0.055 ± 0.054.
The value for D7S was 0.054 ± 0.45.
The figure for D7K is 0.029 ± 0.4; for D7L it is -0.434 ± 0.31.
The value for D7P was -0.143 ± 0.3; that for W70V was -0.411 ± 0.042; that for L71E was -0.598 ± 0.49.
With T45K, the abundance fitness was determined as 0.053 ± 0.038.
The figure for T45R is -0.005 ± 0.025; for K22T it is -0.143 ± 0.05; for P4M it is 0.068 ± 0.053.
The figure for P4F is 0.149 ± 0.11; for L32R it is -0.033 ± 0.38; for T46C it is -0.317 ± 0.061.
As to T46M, the abundance fitness is -0.185 ± 0.041.
The figure for T46I is -0.1 ± 0.053; for T46V it is -0.115 ± 0.031; for T46Y it is -0.547 ± 0.14.
The value for K69M was 0.112 ± 0.14; that for K69T was -0.02 ± 0.08; that for Q27D was -0.356 ± 0.076.
For Q27T, the abundance fitness is 0.04 ± 0.044.
With K64S, the abundance fitness was -0.226 ± 0.042.
As for K64F, the abundance fitness was -0.264 ± 0.1.
The value for K64V was -0.155 ± 0.034; that for G39C was -0.528 ± 0.069; that for A28E was 0.035 ± 0.042.
The figure for A28H is -0.116 ± 0.083.
The value for S76K was 0.021 ± 0.046; that for E72Q was 0.003 ± 0.051; that for E72F was -0.191 ± 0.066.
With E72T, the abundance fitness is -0.073 ± 0.042.
As to E72W, the abundance fitness was -0.177 ± 0.043.
The figure for L67V is -0.525 ± 0.099.
For L67W, the abundance fitness is -0.798 ± 0.16.
The figure for L67T is -0.407 ± 0.32; for L67A it is -0.553 ± 0.12; for D29L it is -0.63 ± 0.053.
Consider D29W, for which the abundance fitness is -0.588 ± 0.049.
Consider D29A, for which the abundance fitness was -0.205 ± 0.035.
The figure for L37D is -0.118 ± 0.046; for L37N it is -0.121 ± 0.066.
The figure for L37V is -0.042 ± 0.029.
With E51R, the abundance fitness was -0.638 ± 0.049.
Regarding E51Q, the abundance fitness is -0.803 ± 0.12.
As for E1P, the abundance fitness is 0.085 ± 0.28.
The value for E1I was -0.066 ± 0.17; that for E1K was -0.105 ± 0.18.
With M60C, the abundance fitness is -0.386 ± 0.074.
The value for M60G was -0.543 ± 0.035.
Consider L66C, for which the abundance fitness is -0.239 ± 0.05.
As for L66N, the abundance fitness is -0.504 ± 0.1.
With L66A, the abundance fitness is -0.137 ± 0.034.
The value for Q18N was -0.292 ± 0.22; that for Q18V was -0.145 ± 0.036; that for Q18T was -0.029 ± 0.051.
For Q18L, the abundance fitness is -0.13 ± 0.037.
The value for Q18Y was -0.295 ± 0.17.
With Q11K, the abundance fitness is 0 ± 0.047.
The figure for Q11M is 0.035 ± 0.046.
The value for C48M was 0.059 ± 0.043; that for C48G was 0.022 ± 0.025.
Turning to C48Q, the abundance fitness came to 0.134 ± 0.046.
Regarding G35W, the abundance fitness is -0.239 ± 0.037.
The figure for G35Q is 0.025 ± 0.046; for N68M it is -0.284 ± 0.27.
With N68Q, the abundance fitness was -0.313 ± 0.43.
Take A33T: the abundance fitness was -0.113 ± 0.068.
The figure for L63S is -0.668 ± 0.059.
As for L53D, the abundance fitness was -0.411 ± 0.068.
The figure for L53S is -0.007 ± 0.038; for T26E it is -0.536 ± 0.058.
T26P: the abundance fitness is -0.553 ± 0.082.
With R19C, the abundance fitness was -0.162 ± 0.054.
The value for R19M was -0.1 ± 0.049.
The value for R19N was -0.182 ± 0.095; that for T3K was -0.023 ± 0.048.
The figure for T3M is 0.117 ± 0.049; for T3Q it is -0.091 ± 0.045.
As to T3D, the abundance fitness was -0.324 ± 0.06.
For the variant G24T, the abundance fitness was -0.914 ± 0.081.
Consider G24L, for which the abundance fitness is -0.789 ± 0.048.
G24D: the abundance fitness was -0.572 ± 0.067.
The value for F16D was -0.854 ± 0.1; that for F16N was -0.704 ± 0.13.
For F16A, the abundance fitness was -0.656 ± 0.045.
The value for F16Q was -0.647 ± 0.088; that for F16H was -0.91 ± 0.19; that for V30I was -0.235 ± 0.15.
With V30N, the abundance fitness is -0.381 ± 0.25.
Regarding D75L, the abundance fitness is -0.133 ± 0.034.
On to S77A, for which the abundance fitness is 0.115 ± 0.038.
The figure for S77K is -0.097 ± 0.074; for I21L it is -0.015 ± 0.03; for I21A it is -0.236 ± 0.037.
The figure for I21V is -0.058 ± 0.031; for I21R it is -0.195 ± 0.029.
The figure for I21Y is -0.489 ± 0.088.
